Results from patent publication US20110263454A1, “Methods of Identifying Functional Characteristics of Promoters, Transcription Modifying Proteins and Transcription Modulating Agents” (Salk Institute for Biological Studies, priority 2008, published 2011).

Assays:
hPOMC promoter = assay: NHR-promoter luciferase screen, hPOMC promoter; format: cell-based, human; conditions: for hPOMC promoter reporter activity: transcription factor +/- ligand, control = 1.00
How it was run: (§1)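 CV-1 cells were co-transfected with 50 ng NHR (homodimer or NHR/RXR heterodimer), 100 ng promoter-luciferase construct and 50 ng LacZ. Luciferase was normalized to LacZ and to a no-NHR/no-ligand control.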

mNPY promoter = assay: NHR-promoter luciferase screen, mNPY promoter; format: cell-based, mouse; conditions: for Results of assays of transcription factor (+/- ligand) with mNPY: Table 6d, luciferase activity relative to control (control = 1.00); for Luc. act., normalized to lacZ / Normalized Luc. act., normalized to control: mNPY promoter, HR component with or without ligand; for Normalized Luc. act., normalized to control: relative to control
How it was run: as §1

hMDR1 promoter = assay: NHR-promoter luciferase screen, hMDR1 promoter; format: cell-based, human; conditions: for Luc. act., normalized to lacZ / Normalized Luc. act., normalized to control: MDR1 promoter, HR/ligand component; for hMDR1 promoter reporter activity: transcription factor +/- ligand, control = 1.00
How it was run: as §1

hCYP3A4 promoter = assay: NHR-promoter luciferase screen, hCYP3A4 promoter; format: cell-based, human; conditions: for Luc. act., normalized to lacZ / Normalized Luc. act., normalized to control: CYP3A4 promoter, HR/ligand component; for hCYP3A4 promoter reporter activity: transcription factor +/- ligand, control = 1.00
How it was run: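 CV-1 cells co-transfected with NHR homodimer or NHR/RXR heterodimer (pcDNA3.1, C-terminal V5H6 tag), promoter-luciferase construct and LacZ transfection control. Orphan receptors screened without ligand. Luciferase normalized to LacZ and to no-NHR/no-ligand control.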

RevErba promoter = assay: NHR-promoter luciferase screen, RevErba (RVRa) promoter; format: cell-based; set-up: key to mRevErba promoter reporter activity / Normalized Luc. act., normalized to control: luciferase activity normalized to lacZ and to control (no NHR/ligand); conditions: for Luc. act., normalized to lacZ / Normalized Luc. act., normalized to control: HR component without or with ligand; for normalized Luc. act. on a logarithmic scale (column without head, Table 33): log10 of activity normalized to control; for mRevErba promoter reporter activity: transcription factor +/- ligand, control = 1.00
How it was run: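 CV-1 cells co-transfected with NHR (pcDNA3.1, C-terminal V5H6 tag) as homodimer or RXR heterodimer, RevErbα promoter–luciferase reporter and LacZ transfection control; ligand added where applicable. Luciferase normalized to LacZ and to no-NHR/no-ligand control.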

[1] = hPOMC promoter, HR/ligand component

B1: GCNF: Germ Cell Nuclear Factor (NR6A1, GCNF1), cDNA driver (protein, UniProt Q15406 1-480, looked up)
Nuclear receptor subfamily 6 …: MERDEPPPSGGGGGGGSAGFLEPPAALPPPPRNGFCQDELAELDPGTISVSDDRAEQRTCLICGDRATGLHYGIISCEGCKGFFKRSICNKRVYRCSRDKNCVMSRKQRNRCQYCRLLKCLQMGMNRKAIREDGMPGGRNKSIGPVQISEEEIERIMSGQEFEEEANHWSNHGDSDHSSPGNRASESNQPSPGSTLSSSRSVELNGFMAFREQYMGMSVPPHYQYIPHLFSYSGHSPLLPQQARSLDPQSYSLIHQLLSAEDLEPLGTPMLIEDGYAVTQAELFALLCRLADELLFRQIAWIKKLPFFCELSIKDYTCLLSSTWQELILLSSLTVYSKQIFGELADVTAKYSPSDEELHRFSDEGMEVIERLIYLYHKFHQLKVSNEEYACMKAINFLNQDIRGLTSASQLEQLNKRYWYICQDFTEYKYTHQPNRFPDLMMCLPEIRYIAGKMVNVPLEQLPLLFKVVLHSCKTSVGKE
Normalized Luc. act., normalized to control (hPOMC promoter; [1]): 0.0 | hPOMC promoter reporter activity (hPOMC promoter): 0.00 | Results of assays of transcription factor (+/- ligand) with mNPY (mNPY promoter): 0.64 | Luc. act., normalized to lacZ (mNPY promoter): 53.5 | Normalized Luc. act., normalized to control (mNPY promoter): 0.6 | Luc. act., normalized to lacZ (hMDR1 promoter): 0.3 | Normalized Luc. act., normalized to control (hMDR1 promoter): 0.8 | hMDR1 promoter reporter activity (hMDR1 promoter): 0.83 | Luc. act., normalized to lacZ (hCYP3A4 promoter): 4.5 | Normalized Luc. act., normalized to control (hCYP3A4 promoter): 1.0 | hCYP3A4 promoter reporter activity (hCYP3A4 promoter): 1.02 | Luc. act., normalized to lacZ (RevErba promoter; RVRa promoter): 25.7 | Normalized Luc. act., normalized to control (RevErba promoter; RVRa promoter): 0.9 | negative reciprocal of normalized Luc. act. (fold repression; Table 33) (RevErba promoter; RVRa promoter, given only where activity is below control): −1.087 | normalized Luc. act. on a logarithmic scale (column without head, Table 33) (RevErba promoter; RVRa promoter): −0.04 | mRevErba promoter reporter activity (RevErba promoter): 0.92

B2: DAX-1: DAX1 (NR0B1), cDNA driver (protein, UniProt P51843 1-470, looked up)
Nuclear receptor subfamily 0 …: MAGENHQWQGSILYNMLMSAKQTRAAPEAPETRLVDQCWGCSCGDEPGVGREGLLGGRNVALLYRCCFCGKDHPRQGSILYSMLTSAKQTYAAPKAPEATLGPCWGCSCGSDPGVGRAGLPGGRPVALLYRCCFCGEDHPRQGSILYSLLTSSKQTHVAPAAPEARPGGAWWDRSYFAQRPGGKEALPGGRATALLYRCCFCGEDHPQQGSTLYCVPTSTNQAQAAPEERPRAPWWDTSSGALRPVALKSPQVVCEAASAGLLKTLRFVKYLPCFQVLPLDQQLVLVRNCWASLLMLELAQDRLQFETVEVSEPSMLQKILTTRRRETGGNEPLPVPTLQHHLAPPAEARKVPSASQVQAIKCFLSKCWSLNISTKEYAYLKGTVLFNPDVPGLQCVKYIQGLQWGTQQILSEHTRMTHQGPHDRFIELNSTLFLLRFINANVIAELFFRPIIGTVSMDDMMLEMLCTKI
Luc. act., normalized to lacZ (hPOMC promoter; [1]): 2.7 | Normalized Luc. act., normalized to control (hPOMC promoter; [1]): 0.6 | hPOMC promoter reporter activity (hPOMC promoter): 0.63 | Results of assays of transcription factor (+/- ligand) with mNPY (mNPY promoter): 1.02 | Luc. act., normalized to lacZ (mNPY promoter): 86.0 | Normalized Luc. act., normalized to control (mNPY promoter): 1.0 | Luc. act., normalized to lacZ (hMDR1 promoter): 0.3 | Normalized Luc. act., normalized to control (hMDR1 promoter): 0.9 | hMDR1 promoter reporter activity (hMDR1 promoter): 0.89 | Luc. act., normalized to lacZ (hCYP3A4 promoter): 5.7 | Normalized Luc. act., normalized to control (hCYP3A4 promoter): 1.3 | hCYP3A4 promoter reporter activity (hCYP3A4 promoter): 1.29 | Luc. act., normalized to lacZ (RevErba promoter; RVRa promoter): 29.4 | Normalized Luc. act., normalized to control (RevErba promoter; RVRa promoter): 1.1 | normalized Luc. act. on a logarithmic scale (column without head, Table 33) (RevErba promoter; RVRa promoter): 0.02 | mRevErba promoter reporter activity (RevErba promoter): 1.05
